# “And” between values parts separate entries of the source, which are not always exact repeats. Equal values may be shown once.
# B1: VapC11 toxin (purified alone) (enzyme)
# chain: ILIDTSAWVEYFRATGSIAAVEVRRLLSEEAARIAMCEPIAMEILSGALDDNTHTTLERLVNGLPSLNVDDAIDFRAAAGIYRAARRAGETVRSINDCLIAALAIRHGARIVHRDADFDVIARITNLQAASFR
# notes: VapC11 toxin (PIN domain ribonuclease) of the VapBC11 toxin-antitoxin system, Mycobacterium tuberculosis; 134 amino acids as printed; also called wild-type protein
# Columns and labels:
# AUC = molecular target: the molecule itself; experiment: AUC
# [1] = molecular target: B1; experiment: SPR; Biacore 3000; VapC11 immobilised on a CM5 chip (up to 750 RU); five concentrations of VapB11 injected; 10 mM HEPES (pH 7.5), 150 mM NaCl, 25°C, 20 μl/min; 1:1 Langmuir model with drifting baseline; conditions: both partners purified
# [2] = molecular target: the molecule itself; experiment: […] (pH 8.0), 150 mM NaCl, […]
Binder,stoichiometry N (AUC),Kd [1] [pM],koff [1] [s⁻¹],kon [1] [M⁻¹ s⁻¹],stoichiometry N [2]
B1,2 and 4,–,–,–,–
"VapB11 (shorter form, VapB11^6-72), (6x-His)-VapB11 (domain or fragment, Homodimer by AUC; also called antitoxin VapB11) MSRTNIDIDDELAAEVMRRFGLTTKRAAVDLALRRLVGSPLSREFLLGLEGVGWEGDLDDLRSDRPD",–,~600,0.000133,1.15e+06,2

# Source: paper PMC6265470, “Structural, functional and biological insights into the role of Mycobacterium tuberculosis VapBC11 toxin–antitoxin system: targeting a tRNase to tackle mycobacterial adaptation” (Nucleic Acids Research, 2018)
